Measurements taken from US20200061156A1 (UNIVERSITY OF QUEENSLAND, published 2020).

Key:
[1] = target: rat acid sensing ion channel subtype 1a (homomeric, expressed in Xenopus laevis oocytes) (rat) (UniProt P55926); assay: cell-based or functional assay
[2] = target: rat acid sensing ion channel subtype 1a (homomeric, expressed in Xenopus laevis oocytes) (rat) (UniProt P55926); assay: inhibition of rASIC1a currents in Xenopus oocytes
[3] = target: T1, rat acid sensing ion channel subtype 3 (homomeric, expressed in Xenopus laevis oocytes) (rat, UniProt O35240 1-533); assay: cell-based or functional assay
T1 sequence: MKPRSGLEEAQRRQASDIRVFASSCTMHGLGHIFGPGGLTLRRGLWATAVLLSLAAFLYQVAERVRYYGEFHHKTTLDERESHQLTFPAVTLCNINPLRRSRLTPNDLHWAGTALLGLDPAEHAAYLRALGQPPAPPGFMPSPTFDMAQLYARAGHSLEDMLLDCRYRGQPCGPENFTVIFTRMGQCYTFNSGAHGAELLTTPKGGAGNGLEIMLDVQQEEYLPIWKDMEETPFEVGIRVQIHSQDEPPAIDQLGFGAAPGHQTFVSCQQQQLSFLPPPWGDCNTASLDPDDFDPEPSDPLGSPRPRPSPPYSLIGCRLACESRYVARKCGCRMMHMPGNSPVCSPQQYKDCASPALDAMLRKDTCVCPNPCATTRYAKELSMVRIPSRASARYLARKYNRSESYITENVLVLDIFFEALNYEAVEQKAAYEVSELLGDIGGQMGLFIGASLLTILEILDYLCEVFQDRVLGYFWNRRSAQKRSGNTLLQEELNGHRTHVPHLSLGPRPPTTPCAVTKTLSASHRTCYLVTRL

[4] = target: T2, rat acid sensing ion channel subtype 2a (homomeric, expressed in Xenopus laevis oocytes) (rat, UniProt Q62962 1-512); assay: cell-based or functional assay
T2 sequence: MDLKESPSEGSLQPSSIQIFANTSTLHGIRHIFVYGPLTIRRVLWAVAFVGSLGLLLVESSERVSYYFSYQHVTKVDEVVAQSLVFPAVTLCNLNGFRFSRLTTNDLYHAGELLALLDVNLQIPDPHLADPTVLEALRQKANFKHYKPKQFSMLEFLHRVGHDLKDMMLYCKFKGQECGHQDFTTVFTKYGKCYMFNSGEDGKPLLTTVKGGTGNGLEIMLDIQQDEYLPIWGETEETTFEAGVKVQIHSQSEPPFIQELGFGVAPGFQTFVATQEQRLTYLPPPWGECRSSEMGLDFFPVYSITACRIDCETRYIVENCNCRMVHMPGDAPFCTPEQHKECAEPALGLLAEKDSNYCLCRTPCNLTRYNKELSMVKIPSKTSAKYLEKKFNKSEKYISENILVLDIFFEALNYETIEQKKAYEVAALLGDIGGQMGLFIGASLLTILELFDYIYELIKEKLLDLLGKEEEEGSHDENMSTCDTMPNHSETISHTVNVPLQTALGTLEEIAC

[5] = target: human acid sensing ion channel subtype 1a (homomeric, expressed in Xenopus laevis oocytes) (human), P78348; assay: cell-based or functional assay
[6] = target: rat acid sensing ion channel subtype 1b (homomeric, expressed in Xenopus laevis oocytes) (rat), P55926; assay: cell-based or functional assay
rat acid sensing ion channel subtype 1b (homomeric, expressed in Xenopus laevis oocytes) (rat), P55926, sequence (P55926 whole entry): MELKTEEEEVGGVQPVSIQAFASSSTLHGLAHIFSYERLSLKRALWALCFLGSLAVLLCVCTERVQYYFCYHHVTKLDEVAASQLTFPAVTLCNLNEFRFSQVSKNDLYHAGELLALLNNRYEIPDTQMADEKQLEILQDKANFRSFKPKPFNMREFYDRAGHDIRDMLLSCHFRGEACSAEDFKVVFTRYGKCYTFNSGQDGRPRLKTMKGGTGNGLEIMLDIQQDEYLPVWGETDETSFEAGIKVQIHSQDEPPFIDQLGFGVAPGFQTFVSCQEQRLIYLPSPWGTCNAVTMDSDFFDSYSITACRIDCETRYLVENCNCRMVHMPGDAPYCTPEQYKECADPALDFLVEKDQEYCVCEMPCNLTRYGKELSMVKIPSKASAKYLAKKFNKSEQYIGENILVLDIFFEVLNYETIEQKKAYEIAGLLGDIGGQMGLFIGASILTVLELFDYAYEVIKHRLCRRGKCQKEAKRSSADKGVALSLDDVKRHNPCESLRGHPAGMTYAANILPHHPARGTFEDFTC

rat acid sensing ion channel subtype 1a (homomeric, expressed in Xenopus laevis oocytes) (rat), sequence (P55926 whole entry): as above
human acid sensing ion channel subtype 1a (homomeric, expressed in Xenopus laevis oocytes) (human), P78348, sequence (P78348 whole entry): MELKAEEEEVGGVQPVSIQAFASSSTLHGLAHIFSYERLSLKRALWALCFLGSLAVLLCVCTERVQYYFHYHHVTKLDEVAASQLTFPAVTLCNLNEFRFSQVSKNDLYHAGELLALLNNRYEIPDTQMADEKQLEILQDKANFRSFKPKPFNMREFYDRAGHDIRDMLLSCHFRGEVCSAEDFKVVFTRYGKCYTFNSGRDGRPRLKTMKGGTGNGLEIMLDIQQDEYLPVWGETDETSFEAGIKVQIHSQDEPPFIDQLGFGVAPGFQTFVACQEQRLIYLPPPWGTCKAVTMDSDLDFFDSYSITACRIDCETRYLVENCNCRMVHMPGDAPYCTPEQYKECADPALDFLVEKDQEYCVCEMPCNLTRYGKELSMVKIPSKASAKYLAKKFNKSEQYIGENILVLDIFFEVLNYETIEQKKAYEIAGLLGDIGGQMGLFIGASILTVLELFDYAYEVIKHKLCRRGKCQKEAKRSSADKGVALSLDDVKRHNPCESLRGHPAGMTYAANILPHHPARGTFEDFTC

## recombinant Hi1d (peptide)
[1]
  % Residual Current: 0%
  IC50 (inhibition of acid-evoked current, TEVC, Xenopus oocytes): 193 nM
  time to full reversal of inhibition on washout (TEVC): < 60 s

## N-terminal ICK domain of Hi1a (Hi1a-N), produced in E. coli (peptide)
[1]
  IC50 (inhibition of acid-evoked current, TEVC, Xenopus oocytes): 1000 nM
  fold lower potency than PcTx1 or full-length Hi1a: 1000 fold

## C-terminal ICK domain of Hi1a (Hi1a-C), produced in E. coli
[2]
  IC50: > 30000 nM

## recombinant Hi1a (π-hexatoxin-Hi1a) expressed in E. coli
[2]
  IC50: 0.464 nM

## recombinant Hi1a (π-hexatoxin-Hi1a) expressed in E. coli (peptide)
[1]
  % Residual Current: 30%
  IC50 (inhibition of acid-evoked current, TEVC, Xenopus oocytes): 0.46 nM

B1: recombinant engineered peptide #1 (EP 1), two copies of PcTx1 joined by a linker (designed binder)
peptide: SEDCIPKWKGCVNRHGDCCEGLECWKRRRSFEVCVPKTEDCIPKWKGCVNRHGDCCEGLECWKRRRSFEVCVPKTPKT
[1]
  % Residual Current: 0%
  IC50 (inhibition of acid-evoked current, TEVC, Xenopus oocytes): 64 nM
  fold increase in IC50 against wild-type Hi1a: 200 fold

B2: recombinant engineered peptide #2 (EP 2), as EP 1 with a Glu to Gly mutation in the linker (designed binder)
peptide: SEDCIPKWKGCVNRHGDCCEGLECWKRRRSFEVCVPKTGDCIPKWKGCVNRHGDCCEGLECWKRRRSFEVCVPKTPKT
[1]
  % Residual Current: 0%
  IC50 (inhibition of acid-evoked current, TEVC, Xenopus oocytes): 215 nM
  fold increase in IC50 against wild-type Hi1a: 500 fold

B3: recombinant Hi1a (π-hexatoxin-Hi1a) expressed in E. coli (peptide)
peptide: SNECIRKWLSCVDRKNDCCEGLECYKRRHSFEVCVPIPGFCLVKWKQCDGRERDCCAGLECWKRSGNKSSVCAPIT
[3]
  fold higher potency at ASIC1a over this subtype (from 1 µM Hi1a, TEVC): > 2000 fold
  selectivity for ASIC1a over this subtype (from 30 nM Hi1a, TEVC): ≥ 50 fold
[4]
  fold higher potency at ASIC1a over this subtype (from 1 µM Hi1a, TEVC): > 2000 fold
  selectivity for ASIC1a over this subtype (from 30 nM Hi1a, TEVC): ≥ 50 fold
[5]
  % Residual Current: 20%
  IC50 (inhibition of acid-evoked current, TEVC, Xenopus oocytes): 0.59 nM
[6]
  fold higher potency at ASIC1a over this subtype (from 1 µM Hi1a, TEVC): > 2000 fold
  selectivity for ASIC1a over this subtype (from 30 nM Hi1a, TEVC): > 50 fold
